Measured values from patent US20090274620A1 (WILEX, published 2009).

Target: G250 antigen (MN antigen), complete protein, aa 1-459 (UniProt Q16790 38-459)
Assay: immunohistochemistry of G250-negative cells transiently transfected with the complete cDNA

- binding result: binds
B1: monoclonal antibody G250 (murine, from hybridoma DSM ACC 2526) (antibody, IgG1, V domains shown)
VH: DVKLVESGGGLVKLGGSLKLSCAASGFTFSNYYMSWVRQTPEKRLELVAAINSDGGITYYLDTVKGRFTISRDNAKNTLYLQMSSLKSEDTALFYCARHRSGYFSMDYWGQGTSVTVSS
VL: DIVMTQSQRFMSTTVGDRVSITCKASQNVVSAVAWYQQKPGQSPKLLIYSASNRYTGVPDRFTGSGSGTDFTLTISNMQSEDLADFFCQQYSNYPWTFGGGTKLEIK
notes: also called MAbG250; MabG250
